Experimental data as given in publication PMC11455619 (Structure (London, England : 1993), 2024).

Target: T1, septin-7 (commercially purified, LSBio) (UniProt Q16181 1-437, labelled with RED-tris-NTA 2nd generation dye (Monolith His-Tag labeling kit))
T1 sequence (looked up): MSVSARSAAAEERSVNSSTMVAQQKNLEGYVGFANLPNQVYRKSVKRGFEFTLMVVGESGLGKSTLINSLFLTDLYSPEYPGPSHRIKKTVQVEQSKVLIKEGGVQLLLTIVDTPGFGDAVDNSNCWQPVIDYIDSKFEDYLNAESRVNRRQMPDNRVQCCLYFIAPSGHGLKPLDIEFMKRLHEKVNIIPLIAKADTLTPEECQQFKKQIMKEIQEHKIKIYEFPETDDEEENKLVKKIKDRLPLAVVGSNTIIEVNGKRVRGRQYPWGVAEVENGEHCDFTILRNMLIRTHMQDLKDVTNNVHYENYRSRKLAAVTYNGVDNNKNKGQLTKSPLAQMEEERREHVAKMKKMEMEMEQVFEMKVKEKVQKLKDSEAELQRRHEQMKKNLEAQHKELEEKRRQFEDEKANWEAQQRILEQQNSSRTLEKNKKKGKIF
Assay: MST

- Kd: 6.84 µM
B1: SOD1 trimer, F20L-H46Q (FH) trimer-stabilising mutant (enzyme)
chain: not shown
